According to the supplement of paper PMC10724198:
± gives the standard deviation of the averaged measurements.

Experiments:
[1] = test system: Saccharomyces cerevisiae; assay: protein stability index of tFT-peptide fusion (C-terminal peptide) (PSI (0-1 scale)); higher = more stable (slower turnover); conditions: genetic background: wild type; temperature: 30 C
[2] = test system: Saccharomyces cerevisiae; assay: as above
Method: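 MPS profiling in S. cerevisiae of the tFT-X12 degron library: putative degron peptides plus stable controls, 12 aa, fused to the C-terminus of a sfGFP-mCherry timer. Cells are FACS-sorted into 8 mCherry/sfGFP bins and deep-sequenced. PSI runs from 0 (unstable) to 1 (stable). Backgrounds are wild type, das1Δ and doa10Δ at 30 °C, and wild type, das1Δ, cdc34-1 and cdc53-1 at 37 °C; 2-3 technical replicates each.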

[3] = genetic background: cdc34-1, temperature: 37 C
[4] = genetic background: cdc53-1, temperature: 37 C
[5] = genetic background: das1 deletion, temperature: 30 C
[6] = genetic background: das1 deletion, temperature: 37 C
[7] = genetic background: doa10 deletion, temperature: 30 C
[8] = genetic background: wild type, temperature: 30 C
[9] = genetic background: wild type, temperature: 37 C
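Note: PSI is a weighted mean of sequencing reads over stability bins, variants kept only with over 10 reads, mCherry proximal and sfGFP distal, peptide attached via GGGS linker.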

## AYACSILRCKSS
[1]
  protein stability index: 0.34 ± 0.086
[2]; [3]
  protein stability index: 0.624 ± 0.015
[2]; [4]
  protein stability index: 0.727 ± 0.013
[2]; [5]
  protein stability index: 0.636 ± 0.012
[2]; [6]
  protein stability index: 0.713 ± 0.026
[2]; [7]
  protein stability index: 0.186 ± 0.016
[2]; [8]
  protein stability index: 0.219 ± 0.052
[2]; [9]
  protein stability index: 0.422 ± 0.04

## CAGRQGRERGHT
[1]
  protein stability index: 0.695 ± 0.011
[2]; [3]
  protein stability index: 0.694 ± 0.03
[2]; [4]
  protein stability index: 0.7217 ± 0.0042
[2]; [5]
  protein stability index: 0.658 ± 0.043
[2]; [6]
  protein stability index: 0.722 ± 0.016
[2]; [7]
  protein stability index: 0.63499 ± 0.00057
[2]; [8]
  protein stability index: 0.658 ± 0.013
[2]; [9]
  protein stability index: 0.717 ± 0.036

## CALFLLSSPSPT
[1]
  protein stability index: 0.699 ± 0.011
[2]; [3]
  protein stability index: 0.713 ± 0.061
[2]; [4]
  protein stability index: 0.781 ± 0.01
[2]; [5]
  protein stability index: 0.634 ± 0.018
[2]; [6]
  protein stability index: 0.768 ± 0.012
[2]; [7]
  protein stability index: 0.659 ± 0.021
[2]; [8]
  protein stability index: 0.6451 ± 0.0031
[2]; [9]
  protein stability index: 0.7356 ± 0.0054

## CASIVDGFAFRF
[1]
  protein stability index: 0.7662 ± 0.0074
[2]; [3]
  protein stability index: 0.752 ± 0.0086
[2]; [4]
  protein stability index: 0.782 ± 0.03
[2]; [5]
  protein stability index: 0.632 ± 0.011
[2]; [6]
  protein stability index: 0.786 ± 0.0097
[2]; [7]
  protein stability index: 0.646 ± 0.023
[2]; [8]
  protein stability index: 0.679 ± 0.046
[2]; [9]
  protein stability index: 0.7472 ± 0.0015

## CFCPILFPRCLA
[1]
  protein stability index: 0.25 ± 0.072
[2]; [3]
  protein stability index: 0.476 ± 0.048
[2]; [4]
  protein stability index: 0.636 ± 0.016
[2]; [5]
  protein stability index: 0.579 ± 0.045
[2]; [6]
  protein stability index: 0.6659 ± 0.0023
[2]; [7]
  protein stability index: 0.142 ± 0.017
[2]; [8]
  protein stability index: 0.139 ± 0.021
[2]; [9]
  protein stability index: 0.19 ± 0.013

## CFGFMFLLLFDV
[1]
  protein stability index: 0.405 ± 0.02
[2]; [3]
  protein stability index: 0.3073 ± 0.0011
[2]; [4]
  protein stability index: 0.312 ± 0.0066
[2]; [5]
  protein stability index: 0.334 ± 0.024
[2]; [6]
  protein stability index: 0.448 ± 0.013
[2]; [7]
  protein stability index: 0.467 ± 0.011
[2]; [8]
  protein stability index: 0.317 ± 0.027
[2]; [9]
  protein stability index: 0.418 ± 0.0039

## CFRRPLLRVVLT
[1]
  protein stability index: 0.506 ± 0.018
[2]; [3]
  protein stability index: 0.502 ± 0.014
[2]; [4]
  protein stability index: 0.5681 ± 0.0051
[2]; [5]
  protein stability index: 0.451 ± 0.037
[2]; [6]
  protein stability index: 0.59 ± 0.025
[2]; [7]
  protein stability index: 0.4289 ± 0.0035
[2]; [8]
  protein stability index: 0.435 ± 0.017
[2]; [9]
  protein stability index: 0.569 ± 0.0089

## CFSYLLIVLLFP
[1]
  protein stability index: 0.279 ± 0.005
[2]; [3]
  protein stability index: 0.168 ± 0.019
[2]; [4]
  protein stability index: 0.2273 ± 0.00043
[2]; [5]
  protein stability index: 0.198 ± 0.024
[2]; [6]
  protein stability index: 0.334 ± 0.031
[2]; [7]
  protein stability index: 0.216 ± 0.0065
[2]; [8]
  protein stability index: 0.17 ± 0.045
[2]; [9]
  protein stability index: 0.307 ± 0.0052

## CFVPFFLPLCAF
[1]
  protein stability index: 0.139 ± 0.016
[2]; [3]
  protein stability index: 0.0255 ± 0.0085
[2]; [4]
  protein stability index: 0.0285 ± 0.0074
[2]; [5]
  protein stability index: 0.0864 ± 0.03
[2]; [6]
  protein stability index: 0.109 ± 0.058
[2]; [7]
  protein stability index: 0.144 ± 0.0073
[2]; [8]
  protein stability index: 0.0733 ± 0.019
[2]; [9]
  protein stability index: 0.0588 ± 0.022

## CGILACSVCTFF
[1]
  protein stability index: 0.509 ± 0.021
[2]; [3]
  protein stability index: 0.547 ± 0.071
[2]; [4]
  protein stability index: 0.6516 ± 0.0037
[2]; [5]
  protein stability index: 0.427 ± 0.027
[2]; [6]
  protein stability index: 0.6336 ± 0.0037
[2]; [7]
  protein stability index: 0.405 ± 0.016
[2]; [8]
  protein stability index: 0.436 ± 0.024
[2]; [9]
  protein stability index: 0.61 ± 0.023

## CGLLWFYSFFLF
[1]
  protein stability index: 0.38 ± 0.021
[2]; [3]
  protein stability index: 0.502 ± 0.019
[2]; [4]
  protein stability index: 0.491 ± 0.013
[2]; [5]
  protein stability index: 0.391 ± 0.04
[2]; [6]
  protein stability index: 0.5187 ± 0.0046
[2]; [7]
  protein stability index: 0.375 ± 0.012
[2]; [8]
  protein stability index: 0.316 ± 0.013
[2]; [9]
  protein stability index: 0.465 ± 0.018

## CGLYNQFCLFLY
[1]
  protein stability index: 0.31 ± 0.027
[2]; [3]
  protein stability index: 0.561 ± 0.04
[2]; [4]
  protein stability index: 0.626 ± 0.022
[2]; [5]
  protein stability index: 0.527 ± 0.018
[2]; [6]
  protein stability index: 0.6526 ± 0.0024
[2]; [7]
  protein stability index: 0.2274 ± 0.0022
[2]; [8]
  protein stability index: 0.217 ± 0.029
[2]; [9]
  protein stability index: 0.37 ± 0.0043

## CGVWVVVASAYR
[1]
  protein stability index: 0.377 ± 0.03
[2]; [3]
  protein stability index: 0.43 ± 0.019
[2]; [4]
  protein stability index: 0.483 ± 0.03
[2]; [5]
  protein stability index: 0.302 ± 0.02
[2]; [6]
  protein stability index: 0.49431 ± 0.00019
[2]; [7]
  protein stability index: 0.2812 ± 0.0017
[2]; [8]
  protein stability index: 0.304 ± 0.019
[2]; [9]
  protein stability index: 0.508 ± 0.0093

## CGWVRRARVKMM
[1]
  protein stability index: 0.241 ± 0.015
[2]; [3]
  protein stability index: 0.622 ± 0.073
[2]; [4]
  protein stability index: 0.693 ± 0.01
[2]; [5]
  protein stability index: 0.63 ± 0.026
[2]; [6]
  protein stability index: 0.709 ± 0.014
[2]; [7]
  protein stability index: 0.114 ± 0.03
[2]; [8]
  protein stability index: 0.137 ± 0.029
[2]; [9]
  protein stability index: 0.226 ± 0.0087

## CHFLLPFLFTCA
[1]
  protein stability index: 0.332 ± 0.006
[2]; [3]
  protein stability index: 0.225 ± 0.027
[2]; [4]
  protein stability index: 0.28 ± 0.0099
[2]; [5]
  protein stability index: 0.244 ± 0.043
[2]; [6]
  protein stability index: 0.3685 ± 0.00097
[2]; [7]
  protein stability index: 0.1949 ± 0.0015
[2]; [8]
  protein stability index: 0.221 ± 0.024
[2]; [9]
  protein stability index: 0.309 ± 0.0071

## CLASCRHRTYLC
[1]
  protein stability index: 0.483 ± 0.12
[2]; [3]
  protein stability index: 0.652 ± 0.026
[2]; [4]
  protein stability index: 0.7142 ± 0.0013
[2]; [5]
  protein stability index: 0.641 ± 0.023
[2]; [6]
  protein stability index: 0.7223 ± 0.0018
[2]; [7]
  protein stability index: 0.338 ± 0.015
[2]; [8]
  protein stability index: 0.364 ± 0.025
[2]; [9]
  protein stability index: 0.58 ± 0.016

## CLFRVCLFILSI
[1]
  protein stability index: 0.386 ± 0.0041
[2]; [3]
  protein stability index: 0.397 ± 0.019
[2]; [4]
  protein stability index: 0.49 ± 0.049
[2]; [5]
  protein stability index: 0.333 ± 0.038
[2]; [6]
  protein stability index: 0.489 ± 0.0053
[2]; [7]
  protein stability index: 0.3114 ± 0.00076
[2]; [8]
  protein stability index: 0.3 ± 0.028
[2]; [9]
  protein stability index: 0.467 ± 0.013

## CLLGMKSRTILV
[1]
  protein stability index: 0.377 ± 0.014
[2]; [3]
  protein stability index: 0.347 ± 0.029
[2]; [4]
  protein stability index: 0.33 ± 0.0047
[2]; [5]
  protein stability index: 0.289 ± 0.028
[2]; [6]
  protein stability index: 0.4262 ± 0.0024
[2]; [7]
  protein stability index: 0.236 ± 0.006
[2]; [8]
  protein stability index: 0.287 ± 0.03
[2]; [9]
  protein stability index: 0.397 ± 0.015
